From PMC3212559, “Large-Scale Protein-Protein Interaction Analysis in Arabidopsis Mesophyll Protoplasts by Split Firefly Luciferase Complementation” (PLoS ONE, 2011) come the findings set out here.

This experiment concerns the target T1, C-terminal domain (CTD) of ARF5-FLucC (Arabidopsis, UniProt P93024 793-902).
T1 construct: In the ARF-ARF tests the same CTD stood both as ARFCTD-FLucC and as ARFCTD-FLucN; one molecule for both; also called ARF5CTD-FLucC; auxin response factor 5; source: Arabidopsis mesophyll protoplasts, transfected, in living cells (SFLC) and in lysate (co-IP); not shown: FLucC (firefly luciferase aa 394-550)
T1 sequence (looked up): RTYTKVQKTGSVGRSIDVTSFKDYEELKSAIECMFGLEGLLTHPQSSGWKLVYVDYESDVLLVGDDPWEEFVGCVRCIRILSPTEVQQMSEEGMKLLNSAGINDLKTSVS
In words: split reporter (BiFC, NanoBiT); SFLC in living Arabidopsis mesophyll protoplasts: Aux/IAA-FLucN or MYB30-FLucN co-expressed with ARFCTD-FLucC or Aux/IAA-FLucC for 6 hr; 10 µg of each construct, 2×10^4 cells, 96-well plate, D-luciferin; relative activity standardised against ARF5CTD-FLucC + IAA28-FLucN. The settings on record: partners not purified.

B1: IAA28-FLucN (natural protein, Arabidopsis, UniProt Q9XFM0 1-175, looked up)
chain: MEEEKRLELRLAPPCHQFTSNNNINGSKQKSSTKETSFLSNNRVEVAPVVGWPPVRSSRRNLTAQLKEEMKKKESDEEKELYVKINMEGVPIGRKVNLSAYNNYQQLSHAVDQLFSKKDSWDLNRQYTLVYEDTEGDKVLVGDVPWEMFVSTVKRLHVLKTSHAFSLSPRKHGKE
notes: Arabidopsis transcription repressor IAA28; also called Aux/IAA-FLucN; source: Arabidopsis mesophyll protoplasts, transfected, in living cells; not shown: FLucN (firefly luciferase aa 1-398)
As for B1, the “restored luciferase activity, fold over the negative control MYB30-FLucN + ARF5CTD-FLucC” value was approximately 350 fold.
